Legend:
[1] = biological target: SARS-CoV-2突变株D614G S蛋白 (spike protein of the D614G mutant strain, on live virus) (SARS-CoV-2 D614G mutant strain, UniProt P0DTC2 14-1273); assay: cell-based or functional assay
[2] = biological target: SARS-CoV-2突变株501Y.V2 (B.1.351) S蛋白 (spike protein of 501Y.V2, on live virus) (SARS-CoV-2 501Y.V2 (B.1.351), UniProt P0DTC2 14-1273); assay: cell-based or functional assay

B1: 单克隆抗体35B5 (monoclonal antibody 35B5) (antibody, V domains shown, not shown: large carriers)
VH: QVQLLESGGGLVQPGRSLRLSCAASGFTFDDYAMHWVRQAPGKGLEWVSGVSWNSGTIGYADSVKGRFTISRDNAKNSLYLHMRSLRAEDTALYYCAKAVEMVRGLMGLGADPEYGMDVWGQGTTVTVSS
VL: not shown
IC50, live SARS-CoV-2 neutralisation on Vero E6 cells (plaque / focus assay) [1]: 0.00728 µg/mL | IC50, live SARS-CoV-2 neutralisation on Vero E6 cells (plaque / focus assay) [2]: 0.013 µg/mL
